Data taken from EP1212366B1.

Key:
[1] = biological target: human FcγRI (CD64) on cells (human) (UniProt P12314); test: cell-based or functional assay
[2] = biological target: human FcγRI (CD64) on cells (human) (UniProt P12314); test: flow cytometry, fluorescein-conjugated antibody on monocytes
[3] = biological target: soluble fusion protein of the extracellular domain of human FcγRI and human IgM heavy chain (sFcγRI-µ) (human) (UniProt P12314); test: ELISA on captured sFcγRI-µ, against a nonspecific human IgG1 mAb

Substance: M22 Fab' x 32.2 Fab' x M22 Fab' chemically linked trivalent antibody
- FcγRI expression on monocytes in whole blood (modulation assay) (% of the level prior to BsAb treatment) [1]: 50

Substance: chemically linked M22 Fab' multimer M22 F(ab')3+
- human CD64 surface expression on macrophages of CD64-transgenic mice (M32.2-FITC) [1]: < 50 % reduction

Substance: humanized anti-FcγRI antibody H22 (KOL VH/REI Vκ mAb)
- antibody sites per cell (antibody sites per cell) [2]: 10500
- percent of binding via the Fv portion [3]: > 95%

Substance: murine anti-FcγRI monoclonal antibody M22
- antibody sites per cell (antibody sites per cell) [2]: 10000
